Here are results for three molecules from article PMC5345068, “A Glycyrrhetinic Acid-Modified Curcumin Supramolecular Hydrogel for liver tumor targeting therapy” (Scientific Reports, 2017).

The conditions of data set [1]: water; cited from earlier work. From the text: Curcumin (Cur), a hydrophobic polyphenol compound, is derived from the rhizomes of Curcuma longa. Cur has a wide range of therapeutic properties, such as anti-inflammation[18], anti-oxidant[19], anti-mutagenic[20], and anticancer[21] with low or no intrinsic toxicity to healthy cells. […] Fig. S-6A). […] The minimum gelation ...

The test system of data set [2] is mouse NIH 3T3 cells. Description: cells. To be noted: NIH3T3, 48 h, read-out: IC50, mouse fibroblast 3T3 cells.
Data set [3] concerns HepG2 cells. In words: cells. To be noted: Homo sapiens, HepG2, 48 h, read-out: IC50 HepG2 mean (Table S-1).
Data set [4] can be described thus: critical micelle concentration (CMC). The class given is physicochemical. Conditions: Fig. S-7. The source says: Fig. S-7. The critical micelle concentration (CMC) of A) GA-cur and B) Nap-cur.
Fig. S-8. The LC-MS traces of the GA-Cur (mw=2398.78,1/ mw=1200.6) and the formed
Fig. S-9. The LC-MS traces of the Nap-Cur ([…]/ mw=1058.6) and the formed

Data set [5] is described as follows: gelation test with GSH and hydrogel stability. The class given is physicochemical. Conditions: PBS pH 7.4, disulfide reduction by GSH. The protocol:
(§1) We therefore tested the gelation ability of the obtained two compounds. […] We then used a rheometer to characterize the resulting hydrogels obtained at 2 h time point. […] We then investigated the fluorescence spectra of the precursors (GA-cur and Nap-cur) and the hydrogels (GA-gel and Nap-gel).
(§2) 3 mg of GA-Cur or Nap-Cur was dissolved in 0.25 mL phosphate buffer saline (PBS) buffer solution (pH = 7.4, adjusted by 1.5 equiv. of Na2CO3). 4equiv. of glutathione (GSH) in 0.05 mL of PBS buffer (pH = 7.4, adjusted by 3.6equiv. of Na2CO3) was added to the above solution.

Data set [6] in a line: solubility of pro-gelators in PBS. The protocol: as §1, §2
Data set [7] concerns HepG2 cells. Conditions: 48 h.
Data set [8] relates to mouse NIH 3T3 cells. Conditions: read-out: IC50, mouse fibroblast 3T3 cells; MTT, 48 h.
For another data set, the system named is 3T3 cells. Description: cellular uptake, 3T3. Conditions: same experiment as HepG2: 25 μM, 4 h; Fig. S-15. The protocol: (§3) After being incubated for 24 h in 6-well plates at a density of 2.5 × 10^5 cells per-well, HepG2 cells were treated with 2 mL growth medium containing 25 μM of Cur, GA-Cur, Nap-Cur, or GA + GA-Cur, respectively. In GA + GA-Cur group, 50 μM of GA was used to pre-treat cells for 2 hours. HepG2 cells were then rinsed for three times with PBS following with a treatment with 25 μM of GA-Cur for another 4 hours. After 4 hours’ incubation, cells were washed for three times with PBS to remove excess compounds and 500 μL of DMSO was added to each well to dissolve compounds in cells. The solution were collected after being treated with sonication for 15 min. The amount of compounds in the cells was determined by a microplate reader excitated at 488 nm. The same experiments were performed with 3T3 cells.

The subject of data set [9] is HepG2 cells. In words: cellular uptake, HepG2. Conditions: 25 μM, 4 h, 6-well plates, 2.5 × 10^5 cells per well, DMSO lysis, microplate reader excitation 488 nm. The protocol: as §3

Where two headings read alike, the source gives them in different places. A value given as a limit tells only on which side of the number the result lay.

As to `COc1cc(/C=C/C(=O)CC(=O)/C=C/c2ccc(O)c(OC)c2)ccc1O` [Cur, Curcumin], the aqueous solubility entry in data set [1] is “≈ 11 ng/ml”. Also, the half-maximal inhibitory concentration (IC50) in the data set with mouse NIH 3T3 cells [2] came out at 28 µM; with HepG2 cells [3] it was 26.5 µM.

In the case of `COc1cc(/C=C/C(=O)CC(=O)/C=C/c2ccc(OC(=O)CCCC(=O)NCCCC[C@H](NC(=O)[C@H](Cc3ccc(O)cc3)NC(=O)[C@H](Cc3ccccc3)NC(=O)[C@H](Cc3ccccc3)NC(=O)CNC(=O)[C@@]3(C)CC[C@]4(C)CC[C@]5(C)C(=CC(=O)[C@@H]6[C@@]7(C)CC[C@H](O)C(C)(C)[C@@H]7CC[C@]65C)[C@@H]4C3)C(=O)N[C@@H](CCC(=O)O)C(=O)NCCSSCCNC(=O)CCC(=O)N[C@@H](CCC(=O)O)C(=O)N[C@@H](CCCNC(=N)N)C(=O)NCC(=O)N[C@@H](CC(=O)O)C(=O)O)c(OC)c2)ccc1O` [GA-Cur, GA–GFFYK(Cur)E-ss-ERGD], in data set [4], the “critical micelle concentration (CMC)” value is “about 1105 μg/mL”. In addition, the minimum gelation concentration entry in [5] is reported as “about 0.75 wt%”. Moreover, the “well solubilized in phosphate buffer saline at a concentration of” value in [6] was not below 10 mg/mL. For the same molecule, the IC50 with HepG2 cells [7] is 10.7 µM.

`COc1cc(/C=C/C(=O)CC(=O)/C=C/c2ccc(OC(=O)CCCC(=O)NCCCC[C@H](NC(=O)[C@H](Cc3ccc(O)cc3)NC(=O)[C@H](Cc3ccccc3)NC(=O)[C@H](Cc3ccccc3)NC(=O)CNC(=O)Cc3ccc4ccccc4c3)C(=O)N[C@@H](CCC(=O)O)C(=O)NCCSSCCNC(=O)CCC(=O)N[C@@H](CCC(=O)O)C(=O)N[C@@H](CCCNC(=N)N)C(=O)NCC(=O)N[C@@H](CC(=O)O)C(=O)O)c(OC)c2)ccc1O` [Nap-Cur, Nap–GFFYK(Cur)E-ss-ERGD]: the IC50 in the data set with mouse NIH 3T3 cells [8] came to 28.7 µM; in the data set on HepG2 cells [7] (read-out: IC50 against HepG2, MTT), 29.7 µM. Further, the “critical micelle concentration (CMC)” value in data set [4] was approximately 1349 µg/mL. In addition, the “intra-cellular concentration of Cur, 3T3” value in the data set on 3T3 cells is recorded as 641 ng/well. The “well solubilized in phosphate buffer saline at a concentration of” value in [6] (PBS pH = 7.4, 10 mg/mL = 1 wt%, optical image) is listed as not below 10 mg/mL. In the data set on HepG2 cells [9], the “intra-cellular concentration of Cur, HepG2” value is recorded as 670 ng/well.
